Paper doi:10.1101/2022.04.12.488087 (bioRxiv, 2022)

Target: SARS-CoV-1 wild type RBD (SARS-CoV-1 (P59594 / NP_828851.1, …))
Experiment: crystal structure

B1: nanobody Nb70 (VHH with 6xHis tag, for crystal structural analysis) (VHH)
VHH: QVQLVESGGGLVQAGGSLRLSCVASGRTFSRYAMGWFRQAPGKEREFVAVIEWDGGTSYYVDSVKGRFTISRDNAKNTVYLQMNSLKPEDTAVYYCAAGGNQYYSATYSIWNEYDFWGQGTQVTVSS
- binding result: binds
